Source: the RNAGym collection of RNA variant scans (doi:10.7554/elife.80360)

B1: Twister Ribozyme (parent)
chain: AACACUGCCAAUGCCGGUCCCAAGCCCGGAUAAAAGUGGAGGGGGCGG

Variants of: B1
Test: self-cleavage, relative activity (ratio to wild type); higher = more cleavage; co-transcriptional
In the case of G16U G24A, the self-cleavage is reported as 0.129. Work on G16U G24U yielded a self-cleavage of 0.0815. In the case of G16A C26G, the self-cleavage is reported as 0.112. With C15U C25G the self-cleavage was 0.414. G17U A22U gave a self-cleavage of 0.161. Work on G17U A22C yielded a self-cleavage of 0.406. Work on G17A G48A yielded a self-cleavage of 0.661. C15U A34U gave a self-cleavage of 0.68. Variant C15U A34C has a self-cleavage of 0.205. G17C A35U showed a self-cleavage of 0.138. For G16A G17U, the self-cleavage was 0.232. Work on G16A A32C yielded a self-cleavage of 0.97. With G16U G38U the self-cleavage was 0.914. With G16C A22C the self-cleavage was 0.198. Work on G16C A22G yielded a self-cleavage of 0.0711. With G16C G41C the self-cleavage was 0.0971. Variant G16C G41U has a self-cleavage of 0.103. G17A U37G gave a self-cleavage of 0.175. In the case of G17A U37C, the self-cleavage is reported as 0.142. G16A C25U showed a self-cleavage of 0.852. G17C G48C gave a self-cleavage of 0.152. For G16A U18G, the self-cleavage was 0.0863. With C15U G43U the self-cleavage was 0.277. Variant G16A G44A has a self-cleavage of 0.928. Variant G16A G44U has a self-cleavage of 1. With C15U G47C the self-cleavage was 0.415. With G17U G36A the self-cleavage was 0.124. C15U U18A showed a self-cleavage of 0.379. G17A A35U gave a self-cleavage of 0.869. Work on G17A C26G yielded a self-cleavage of 0.442. G17A C26A gave a self-cleavage of 0.78. C15U G41C showed a self-cleavage of 0.209. G17A C21G gave a self-cleavage of 0.073. Work on G17U U37G yielded a self-cleavage of 0.12. G17U U37A showed a self-cleavage of 0.092. With G16C U31G the self-cleavage was 0.663. With C15U C21G the self-cleavage was 0.0408. G17C C26A gave a self-cleavage of 0.286. G17C C26U gave a self-cleavage of 0.17. For G16C G39C, the self-cleavage was 0.119. Variant G16C G39A has a self-cleavage of 0.28. With C15U A33C the self-cleavage was 0.839. C15U A33U gave a self-cleavage of 1.01. Work on C15U A33G yielded a self-cleavage of 0.802. G17A G28U showed a self-cleavage of 0.258. With G17C C27U the self-cleavage was 0.0804. G17C C27G showed a self-cleavage of 0.195. Work on G16A C46A yielded a self-cleavage of 0.994. G16A C46U gave a self-cleavage of 0.895. Variant G17A C27U has a self-cleavage of 0.403. In the case of G17A C27G, the self-cleavage is reported as 0.243. C15U G48U gave a self-cleavage of 0.987. C15U G48A gave a self-cleavage of 0.765. In the case of G16A U37G, the self-cleavage is reported as 0.195. G16A G47U gave a self-cleavage of 0.487. In the case of G17U U18A, the self-cleavage is reported as 0.148. Variant G17U U18G has a self-cleavage of 0.106. In the case of C15U A35G, the self-cleavage is reported as 0.659. With C15U A35U the self-cleavage was 0.915. For G16U G17C, the self-cleavage was 0.105. In the case of G16U C27A, the self-cleavage is reported as 0.908. With G16C C21G the self-cleavage was 0.0586. G16C C21U gave a self-cleavage of 0.0834. For G17U C25U, the self-cleavage was 0.204. Variant G16U G47A has a self-cleavage of 0.378. Variant G16U G47U has a self-cleavage of 0.653. For C15U A32G, the self-cleavage was 0.891. With C15U A32C the self-cleavage was 0.678. G17U G39A showed a self-cleavage of 0.119. Work on G17C G39A yielded a self-cleavage of 0.0934. Variant G17A C25A has a self-cleavage of 0.164. G17A C25U showed a self-cleavage of 0.255. G17A C25G showed a self-cleavage of 0.0728. Variant G17A G42A has a self-cleavage of 0.107. Work on G16C A32G yielded a self-cleavage of 0.518. Work on G16C A32C yielded a self-cleavage of 0.536. G16C A32U gave a self-cleavage of 0.456. With G16A C21U the self-cleavage was 0.0697. In the case of G16A C21G, the self-cleavage is reported as 0.0789. Variant C15U A23U has a self-cleavage of 0.291. Work on G17U C20A yielded a self-cleavage of 0.0851. G16A G24U showed a self-cleavage of 0.113. With G16A G24C the self-cleavage was 0.0993. With G17C G38U the self-cleavage was 0.073. In the case of G16A U31C, the self-cleavage is reported as 0.816. Work on G16A U31A yielded a self-cleavage of 0.958. G17U G42U showed a self-cleavage of 0.126. In the case of G17C U18C, the self-cleavage is reported as 0.1. Work on G16C A34G yielded a self-cleavage of 0.298. Work on G16C A34C yielded a self-cleavage of 0.0817. In the case of G16U G28A, the self-cleavage is reported as 0.641. G16U G28C showed a self-cleavage of 1.02. G17U C19A showed a self-cleavage of 0.0777. For G16U C25A, the self-cleavage was 0.206. Variant G16U C25G has a self-cleavage of 0.154. G17C A22G showed a self-cleavage of 0.0562. With G17A A30G the self-cleavage was 0.615. G17A A30U gave a self-cleavage of 0.695. Work on G17U A33U yielded a self-cleavage of 0.257. Work on G17U A33G yielded a self-cleavage of 0.317. G17U A33C gave a self-cleavage of 0.199. G16U A22G showed a self-cleavage of 0.21. G16U A22U gave a self-cleavage of 0.759. G16U A22C showed a self-cleavage of 0.925. With G16A G29A the self-cleavage was 0.639. In the case of G16U U37C, the self-cleavage is reported as 0.261. For G16C A23C, the self-cleavage was 0.0636. C15U C27U gave a self-cleavage of 0.542. In the case of G16C G36C, the self-cleavage is reported as 0.0717. G16C G36U showed a self-cleavage of 0.113. For G17C G28C, the self-cleavage was 0.0667. With G17C G28U the self-cleavage was 0.0606. Work on G17C G28A yielded a self-cleavage of 0.069. Variant G16C C27U has a self-cleavage of 0.854. For G16U A23U, the self-cleavage was 0.238. Work on G17U G44C yielded a self-cleavage of 0.293. G16C A35C gave a self-cleavage of 0.394. With G16C G17U the self-cleavage was 0.174. Variant G16C G17C has a self-cleavage of 0.0907. For G16U G29A, the self-cleavage was 0.946. G16U G29C gave a self-cleavage of 0.544. With G16A C20G the self-cleavage was 0.158. Work on G16C U37C yielded a self-cleavage of 0.0928. With G16C U37A the self-cleavage was 0.165. G16A G36A showed a self-cleavage of 0.409. Variant G17U G47U has a self-cleavage of 0.181. G17U G47C showed a self-cleavage of 0.183. In the case of C15U G42A, the self-cleavage is reported as 0.204. C15U G42C showed a self-cleavage of 0.296. Work on C15U G42U yielded a self-cleavage of 0.235. G16U A30C showed a self-cleavage of 0.804. G16U A30U showed a self-cleavage of 1.08. Work on G17C G44C yielded a self-cleavage of 0.122. Work on G17C G44A yielded a self-cleavage of 0.109. In the case of G17C C46A, the self-cleavage is reported as 0.107. Work on G16C G42U yielded a self-cleavage of 0.115. Work on G16C G42C yielded a self-cleavage of 0.121. With G16C G42A the self-cleavage was 0.139. In the case of G17C G45A, the self-cleavage is reported as 0.132. G17A G45C showed a self-cleavage of 0.278. With G17C G36A the self-cleavage was 0.0801. Work on G16C C25A yielded a self-cleavage of 0.0993. Variant G17C G43C has a self-cleavage of 0.0789. In the case of G16U G45U, the self-cleavage is reported as 0.819. For G16U G45C, the self-cleavage was 0.554. For G17U A30G, the self-cleavage was 0.265. G17U G24U gave a self-cleavage of 0.0893. Work on G17U G24C yielded a self-cleavage of 0.0691. In the case of G17U G45A, the self-cleavage is reported as 0.148. With G17C G47C the self-cleavage was 0.142. G17C G47A showed a self-cleavage of 0.0753. For G16A A33C, the self-cleavage was 0.799. For G16A A33U, the self-cleavage was 0.858. In the case of C15U G24C, the self-cleavage is reported as 0.115. Variant C15U G24A has a self-cleavage of 0.1. For U18A A33G, the self-cleavage was 0.203. With U18A A33U the self-cleavage was 0.391. For U18A A22C, the self-cleavage was 0.485. With U18A A22G the self-cleavage was 0.0469. G16U U31G gave a self-cleavage of 1.04. In the case of G16C U18C, the self-cleavage is reported as 0.114. Variant G16C U18A has a self-cleavage of 0.336. Work on G16A A30U yielded a self-cleavage of 1.04. Work on G16C G38C yielded a self-cleavage of 0.572. With G17U G43C the self-cleavage was 0.0878. Work on G17U G43A yielded a self-cleavage of 0.13. Variant G17A A40U has a self-cleavage of 0.117.
